According to patent US20070254831A1 (published 2007):
Where two headings read alike, the source gives them in different places. Numbered stars: 1 amine (or outer) side, 2 acyl side, 3 side chain; on linkers, the order of the positions; unused ones are H or OH. Bridge positions count the residues as written; N and C are the ends. Square brackets hold non-standard residues; d marks the D form. Ends that are not written are not given here. X3 = 3(S)‑3‑amino‑2‑oxo‑1‑azepine acetic acid, O=C1[C@@H](N[*:1])CCCCN1CC(=O)[*:2]; 3‑amino‑2‑oxo‑1‑piperidine‑acetic acid = dipeptide mimetic in place of Gly-Gly; 6,5‑bicyclic dipeptide mimic = not defined here; Pen = CC(C)(S)[C@H](N)C(=O)O; NMeA = CN[C@@H](C)C(=O)O; Ava = NCCCCC(=O)O; Sar = CNCC(=O)O

Legend:
soluble human FcRn [1] = biological target: T1, soluble human FcRn (human, UniProt P55899 24-297; P61769 21-119, biotinylated (Sulfo-NHS-LC-Biotin) in the ELISA; amine-coupled to CM5 chip in SPR); experiment: SPR, pH 6
T1 construct: also called shFcRn; biotinylated shFcRn
T1 sequence (P55899 24-297 limits assumed, chain 1 of 2): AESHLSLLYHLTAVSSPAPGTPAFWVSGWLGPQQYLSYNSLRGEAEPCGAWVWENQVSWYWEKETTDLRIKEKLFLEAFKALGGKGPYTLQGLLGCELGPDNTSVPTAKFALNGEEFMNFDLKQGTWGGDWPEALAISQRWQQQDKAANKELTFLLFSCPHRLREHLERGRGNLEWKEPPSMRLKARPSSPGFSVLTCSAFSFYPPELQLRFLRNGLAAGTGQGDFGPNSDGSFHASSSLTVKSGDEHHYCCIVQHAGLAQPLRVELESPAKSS
T1 sequence (P61769 21-119 limits assumed, chain 2 of 2): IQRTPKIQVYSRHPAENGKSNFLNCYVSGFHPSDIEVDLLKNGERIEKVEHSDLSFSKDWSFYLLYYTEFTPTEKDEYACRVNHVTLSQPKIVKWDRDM
Procedure: (§1) The following steps were performed to cross-link soluble human or cynomolgus FcRn to the dextran surface of a CM5 sensor chip (Biacore AB, Uppsala, Sweden) by an amine coupling reaction involving 1-ethyl-(3-dimethylaminopropyl)-carbodiimide hydrochloride (EDC) (Biacore AB, Uppsala, Sweden) and N-hydroxysuccinimide (NHS) (Biacore AB, Uppsala, Sweden) as recommended by Biacore (BIAapplications Handbook, version AB, section 4.2, Biacore AB, Uppsala, Sweden). […] Residual sites on the FcRn flow cell were blocked with 1 M ethanolamine hydrochloride pH 8.5 (Biacore AB, Uppsala, Sweden). A control flow cell was blocked with ethanolamine for reference subtraction. For analysis of the monomeric peptides, FcRn was coated to a final density of 4000-5000 response units (RU). For analysis of the peptide dimers, FcRn was coated to a density of 2000-2500 RU. All SPR measurements were performed using a BIACORE 3000 Instrument (Biacore AB Uppsala, Sweden). For measurements done at either pH 6 or pH 7.4, experiments were performed in 50 mM phosphate, 100 mM sodium chloride, 0.01% surfactant P20 (Biacore AB, Uppsala, Sweden).
(§2) Ten, 2-fold dilutions of the peptide were injected over the FcRn-CM5 chip at a rate of 20 μl/min for 2 min. The peptide was dissociated from the chip for 2.5 minutes with buffer. Any remaining peptide was removed from the chip with a 30 second injection of HBS-P buffer (Biacore AB, Uppsala, Sweden) at a rate of 30 μl/min. Sensorgrams were generated and analyzed using BiaEval software version 3.1 (Biacore AB, Uppsala, Sweden). The equilibrium RU observed for each injection was plotted against concentration. The equilibrium KD values were derived by analysis of the plots using the steady state affinity model included in the BiaEval software.

soluble human FcRn [2] = biological target: T1, soluble human FcRn; experiment: ELISA, competitor human IgG
Procedure: (§3) The wells were coated with 100 μl/well of 1 μg/ml biotinylated-shFcRn in Buffer A. The plate was sealed and incubated at 37° C. for 2 hours. Afterwards, the plate washed with 200 μl/well of Buffer B (Buffer B: 100 mM MES pH 6, 150 mM NaCl, 0.5% BSA IgG-free (Jackson ImmunoResearch, West Grove, Pa.), 0.05% Tween-20). […] To allow for mixing, the plate was rocked for 2 minutes, sealed and incubated at 37° C. for 2 hours. […] The plate was covered, incubated for 30 minutes at room temperature and washed 4 times with 200 μl/well of ice-cold buffer B. SureBlue TMB substrate solution (100 μl/well, KPL, Gaithersburg, Md.) was added and the plate was allowed to incubate at room temperature until color developed, which took 5 to 10 minutes. Once color developed, 100 μl/well of TMB stop solution (KPL, Gaithersburg, Md.) was added and the absorbance was measured at 450 nm. The data was plotted as absorbance vs. peptide concentration to derive the inhibitory concentration 50% (IC₅₀) values.

soluble human FcRn [3] = biological target: T1, soluble human FcRn; experiment: SPR, pH 6; remark: listed apart in the source
Procedure: as §1, §2

soluble human FcRn [4] = biological target: T1, soluble human FcRn; experiment: ELISA, competitor human IgG; remark: listed apart in the source
Procedure: as §3

soluble human FcRn [5] = biological target: T1, soluble human FcRn; experiment: ELISA, competitor human IgG; remark: listed apart in the source
Procedure: as §3

soluble human FcRn [6] = biological target: T1, soluble human FcRn; experiment: SPR, pH 6; remark: listed apart in the source
Procedure: as §1, §2

soluble human FcRn [7] = biological target: T1, soluble human FcRn; experiment: ELISA, competitor human IgG; remark: listed apart in the source
Procedure: as §3

soluble human FcRn [8] = biological target: T1, soluble human FcRn; experiment: SPR, pH 6; remark: listed apart in the source
Procedure: as §1, §2

soluble human FcRn [9] = biological target: T1, soluble human FcRn; experiment: SPR, pH 7.4
Procedure: as §1, §2

soluble human FcRn [10] = biological target: T1, soluble human FcRn; experiment: ELISA, competitor human IgG; remark: listed apart in the source
Procedure: as §3

soluble human FcRn [11] = biological target: T1, soluble human FcRn; experiment: SPR, pH 7.4; remark: listed apart in the source
Procedure: as §1, §2

soluble human FcRn [12] = biological target: T1, soluble human FcRn; experiment: SPR, pH 6; remark: listed apart in the source
Procedure: as §1, §2

soluble human FcRn [13] = biological target: T1, soluble human FcRn; experiment: SPR, pH 7.4; remark: listed apart in the source
Procedure: as §1, §2

soluble human FcRn [14] = biological target: T1, soluble human FcRn; experiment: ELISA, competitor human IgG; remark: listed apart in the source
Procedure: as §3

soluble human FcRn [15] = biological target: T1, soluble human FcRn; experiment: SPR, pH 6; remark: listed apart in the source
Procedure: as §1, §2

soluble human FcRn [16] = biological target: T1, soluble human FcRn; experiment: ELISA, competitor human IgG; remark: listed apart in the source
Procedure: as §3

soluble human FcRn [17] = biological target: T1, soluble human FcRn; experiment: ELISA, competitor human IgG; remark: listed apart in the source
Procedure: as §3

soluble human FcRn [18] = biological target: T1, soluble human FcRn; experiment: ELISA, competitor human IgG; remark: listed apart in the source
Procedure: as §3

soluble human FcRn [19] = biological target: T1, soluble human FcRn; experiment: SPR, pH 6; remark: listed apart in the source
Procedure: as §1, §2

soluble human FcRn [20] = biological target: T1, soluble human FcRn; experiment: SPR, pH 7.4; remark: listed apart in the source
Procedure: as §1, §2

soluble human FcRn [21] = biological target: T1, soluble human FcRn; experiment: ELISA, competitor human IgG; remark: listed apart in the source
Procedure: as §3

B1: Peptide No. 208 (peptide)
peptide: RFVTGHF[X3]LYPA-NH2
modifications: N-terminus assumed
SMILES: CC(C)C[C@H](NC(=O)CN1CCCC[C@H](NC(=O)[C@H](Cc2ccccc2)NC(=O)[C@H](Cc2c[nH]cn2)NC(=O)CNC(=O)[C@@H](NC(=O)[C@@H](NC(=O)[C@H](Cc2ccccc2)NC(=O)[C@@H](N)CCCNC(=N)N)C(C)C)[C@@H](C)O)C1=O)C(=O)N[C@@H](Cc1ccc(O)cc1)C(=O)N1CCC[C@H]1C(=O)N[C@@H](C)C(N)=O
Question: With B1 as the binder, how does the Kd (soluble human FcRn [1]) read?
Answer: 2.3 µM

Question: What about the IC50 (soluble human FcRn [2]) of the same binder?
Answer: 23 µM

B2: SEQ ID NO:8 (peptide)
peptide: AGKIICSPGHFGGMYCQGKGTGGGK-NH2
modifications: disulfide 6-16 (inferred)
Question: With B2 as the binder, how does the Kd (soluble human FcRn [3]) read?
Answer: 22 µM

Question: What about the IC50 (soluble human FcRn [4]) of the same binder?
Answer: 64 µM

B3: Peptide No. 96 (peptide)
peptide: QRFXTGHFGGLYPCNGP
modifications: D-Phe at 3; Pen at 4; disulfide; C-terminal amide
Question: With B3 as the binder, how does the IC50 (soluble human FcRn [5]) read?
Answer: 11.4 µM

B4: Peptide No. 63 (peptide)
peptide: QRFXTGHFGGLXPCNGP
modifications: Pen at 4; 4-amino-Phe at 12; disulfide; C-terminal amide
Question: Which results are given for B4?
Answer: Kd (soluble human FcRn [6]): 34 µM; IC50 (soluble human FcRn [7]): 110 µM

B5: Peptide No. 67 (peptide)
peptide: QRFXTGHFGGLXPCNGP
modifications: Pen at 4; 3-pyridylAla at 12; disulfide; C-terminal amide
Question: B5 was tested. Which Kd (soluble human FcRn [6]) did it give?
Answer: 34 µM

Question: What about the IC50 (soluble human FcRn [7]) of the same binder?
Answer: 92 µM

B6: Peptide No. 146 (peptide)
peptide: RFXTGHFGGLYPCNGP
modifications: Pen at 3; NMeLeu at 10; disulfide; C-terminal amide
Question: For B6, which Kd (soluble human FcRn [8]) is on record?
Answer: 0.059 µM

Question: What about the Kd (soluble human FcRn [9]) of the same binder?
Answer: 0.28 µM

Question: What about the IC50 (soluble human FcRn [10]) of the same binder?
Answer: 2.1 µM

B7: SEQ ID NO:7 (peptide)
peptide: AGGGCVTGHFGGIYCNTQGTGGGK-NH2
modifications: disulfide 5-15 (inferred)
Question: How did the Kd (soluble human FcRn [3]) turn out when B7 was run?
Answer: 5.2 µM

Question: What about the Kd (soluble human FcRn [11]) of the same binder?
Answer: 34.7 µM

B8: SEQ ID NO:6 (peptide)
peptide: AGQRFCTGHFGGLYPCNGPGTGGGK-NH2
modifications: disulfide 6-16 (inferred)
Question: How did the Kd (soluble human FcRn [3]) turn out when B8 was run?
Answer: 5.7 µM

Question: And the Kd (soluble human FcRn [12])?
Answer: 5.7 µM

Question: And the Kd (soluble human FcRn [11])?
Answer: 45 µM

Question: What about the Kd (soluble human FcRn [13]) of the same binder?
Answer: 45 µM

Question: What about the IC50 (soluble human FcRn [4]) of the same binder?
Answer: 36 µM

Question: And the IC50 (soluble human FcRn [14])?
Answer: 36 µM

B9: Peptide No. 97 (peptide)
peptide: QRYXTGHFGGLYPCNGP
modifications: Pen at 4; disulfide; C-terminal amide
Question: Which IC50 (soluble human FcRn [5]) does the source give for B9 here?
Answer: 2.4 µM

B10: Peptide No. 98 (peptide)
peptide: QRWXTGHFGGLYPCNGP
modifications: Pen at 4; disulfide; C-terminal amide
Question: With B10 as the binder, how does the IC50 (soluble human FcRn [5]) read?
Answer: 1.5 µM

B11: Peptide No. 213 (peptide)
peptide: QRF[Pen][NMeA]GHFGGLYPCNGP-NH2
modifications: disulfide 4-14; N-terminus assumed
SMILES: CC(C)C[C@@H]1NC(=O)CNC(=O)CNC(=O)[C@H](Cc2ccccc2)NC(=O)[C@H](Cc2c[nH]cn2)NC(=O)CNC(=O)[C@H](C)N(C)C(=O)[C@@H](NC(=O)[C@H](Cc2ccccc2)NC(=O)[C@H](CCCNC(=N)N)NC(=O)[C@@H](N)CCC(N)=O)C(C)(C)SSC[C@@H](C(=O)N[C@@H](CC(N)=O)C(=O)NCC(=O)N2CCC[C@H]2C(N)=O)NC(=O)[C@@H]2CCCN2C(=O)[C@H](Cc2ccc(O)cc2)NC1=O
Question: B11 was tested. Which Kd (soluble human FcRn [15]) did it give?
Answer: 1 µM

Question: And the IC50 (soluble human FcRn [16])?
Answer: 5.5 µM

B12: Peptide No. 195 (peptide)
peptide: QRFXGGHFGGLYPCNGP
modifications: Pen at 4; disulfide; C-terminal amide
Question: How did the Kd (soluble human FcRn [15]) turn out when B12 was run?
Answer: 0.76 µM

B13: Peptide No. 147 (peptide)
peptide: RF[Pen]TGHFG[Sar]YPCNGP-NH2
modifications: disulfide 3-12 (inferred)
notes: printed without the Leu after Sar
Question: For B13, which Kd (soluble human FcRn [8]) is on record?
Answer: 0.058 µM

Question: And the Kd (soluble human FcRn [9])?
Answer: 0.35 µM

Question: And the IC50 (soluble human FcRn [10])?
Answer: 1 µM

B14: Peptide No. 35 (peptide)
peptide: QRFCTGHF[Ava]LYPCNGP-NH2
modifications: disulfide 4-13; N-terminus assumed
SMILES: CC(C)C[C@@H]1NC(=O)CCCCNC(=O)[C@H](Cc2ccccc2)NC(=O)[C@H](Cc2c[nH]cn2)NC(=O)CNC(=O)[C@H]([C@@H](C)O)NC(=O)[C@@H](NC(=O)[C@H](Cc2ccccc2)NC(=O)[C@H](CCCNC(=N)N)NC(=O)[C@@H](N)CCC(N)=O)CSSC[C@@H](C(=O)N[C@@H](CC(N)=O)C(=O)NCC(=O)N2CCC[C@H]2C(N)=O)NC(=O)[C@@H]2CCCN2C(=O)[C@H](Cc2ccc(O)cc2)NC1=O
Question: With B14 as the binder, how does the IC50 (soluble human FcRn [17]) read?
Answer: > 125 µM

B15: Peptide No. 185 (peptide)
peptide: RFVTGHFXLYPA
modifications: X at 8 = 3-amino-N-1-carboxymethyl-2,3,4,5-tetrahydro-1H-[1]-benzazepine-2-one (drawing CHEM-US-00097); linear; C-terminal amide
Question: Which Kd (soluble human FcRn [1]) does the source give for B15 here?
Answer: 3.1 µM

Question: And the IC50 (soluble human FcRn [2])?
Answer: 57 µM

B16: Peptide No. 191 (peptide)
peptide: QRFVTGHF[3‑amino‑2‑oxo‑1‑piperidine‑acetic acid]WYPINGP-NH2
modifications: also: further groups not given here
Question: Which Kd (soluble human FcRn [1]) does the source give for B16 here?
Answer: 333 µM

B17: Peptide No. 194 (peptide)
peptide: QRFXTGHFGXYPCNGP
modifications: Pen at 4; X at 10 = D,L-Friedinger's lactam (dipeptide mimetic for Gly-Leu); disulfide; C-terminal amide
Question: For B17, which IC50 (soluble human FcRn [18]) is on record?
Answer: 4.9 µM

B18: Peptide No. 207 (peptide)
peptide: RFVTGHF[6,5‑bicyclic dipeptide mimic]LYPA-NH2
modifications: reading uncertain
Question: Which Kd (soluble human FcRn [1]) does the source give for B18 here?
Answer: 20 µM

Question: And the IC50 (soluble human FcRn [2])?
Answer: > 125 µM

B19: Peptide No. 216 (peptide)
peptide: QRFXTGHFGXYPCNGP
modifications: Pen at 4; X at 10 = L,L-Friedinger's lactam (dipeptide mimetic for Gly-Leu); disulfide; C-terminal amide
Question: For B19, which IC50 (soluble human FcRn [18]) is on record?
Answer: 19 µM

B20: SEQ ID NO:9 (peptide)
peptide: AGPSYCIEGHIDGIYCFNAGTGGGK-NH2
modifications: disulfide 6-16 (inferred)
Question: Which results are given for B20?
Answer: Kd (soluble human FcRn [3]): 8.8 µM; Kd (soluble human FcRn [11]): 76 µM; IC50 (soluble human FcRn [4]): 49 µM

B21: SEQ ID NO:31 (peptide)
peptide: QRFCTGHFAGLYPCNGP-NH2
modifications: disulfide 4-14 (inferred)
Question: B21 was tested. Which Kd (soluble human FcRn [19]) did it give?
Answer: 230 µM

Question: What about the Kd (soluble human FcRn [20]) of the same binder?
Answer: 200 µM

Question: What about the IC50 (soluble human FcRn [21]) of the same binder?
Answer: > 125 µM

B22: SEQ ID NO:35 (peptide)
peptide: QRFCTGHFGGLYACNGP-NH2
modifications: disulfide 4-14 (inferred)
Question: B22 was tested. Which Kd (soluble human FcRn [20]) did it give?
Answer: 100 µM

B23: SEQ ID NO:33 (peptide)
peptide: QRFCTGHFGGAYPCNGP-NH2
modifications: disulfide 4-14 (inferred)
Question: How did the Kd (soluble human FcRn [19]) turn out when B23 was run?
Answer: 26 µM

Question: What about the Kd (soluble human FcRn [20]) of the same binder?
Answer: 81 µM

Question: What about the IC50 (soluble human FcRn [21]) of the same binder?
Answer: 107 µM
